Source: patent publication US8663642B2, “Anti-CD70 antibody-drug conjugates and their use for the treatment and prevention of cancer and immune disorders” (priority 2003, dated 2014)

Key:
Caki-2 cells = assay: 3H-TdR proliferation assay, RCC lines; type: cell-based, human
[1] = tested on: normal kidney epithelial lines RPTEC and HRCE; assay: Proliferation/cytotoxicity on normal kidney epithelial lines; type: cell-based, human
[2] = tested on: PBMCs stimulated with irradiated allogeneic CESS cells; assay: Mixed lymphocyte reaction (3H-TdR); type: cell-based, human; details: MLR, 5-day culture
CD70^− Hs 835.T cells = assay: 3H-TdR proliferation assay, CD70-negative RCC line; type: cell-based, human; details: CD70^− Hs 835.T cells
[3] = tested on: CD70^+ CD8^+/Vβ17^+ T cells; assay: In vitro deletion of M1 peptide-specific T cells (flow cytometry, viable counts); type: cell-based, human
Procedure: PBMCs from a normal HLA-A0201donor were stimulated with the M1 peptide for 5 days. 1F6 ADCs or control non-binding IgG (cIgG) ADCs were added to cells to a final concentration of 1 μg/ml. Total viable cell counts were conducted at 24, 48, and 76 hours post drug addition. Total numbers of CD8^+/Vβ17^+ for each culture condition are calculated (upper panel).
FIG. 19: Dose-response comparison of anti-CD70 ADCs on deletion of antigen-specific CD8^+/Vβ17^+ cells. PBMCs from a normal HLA-A0201donor were stimulated with the M1 peptide for 5 days. 1F6 ADCs or control non-binding IgG (cIgG) ADCs were given to cells to the specified final concentrations. The percentages of CD8^+/Vβ17^+ cells 4 days post ADC addition was determined by flow cytometry as in FIG. 17.
To examine CD70 expression on activated antigen-specific T cells, PBMCs from a normal donor expressing HLA-A0201 were stimulated with the M1 peptide. PBMCs were seeded at 2×10^6 cells/ml with 5 μg/ml of M1 peptide in AIMV medium supplemented with 5% human AB serum. IL-2 (Proleukin, Chiron) and IL-15 (R&D Systems, MN) were added to final concentrations of 20 IU/ml and 5 ng/ml, respectively, once every two days beginning on day 2 after culture initiation. The expansion of CD8^+/Vβ17^+ T cells and induction of CD70 on the CD8^+/Vβ17^+ was followed by three-color flow cytometry. Vβ17^+ T cells were identified by the anti-TCRVβ17 mAb clone E17.5F3 (Beckman Coulter, Miami, Fla.).
PBMCs from a normal donor expressing HLA-A0201 were stimulated with the M1 peptide as described in Example 11. On day 5, cells were harvested, washed, and re-seeded at 0.5-1×10^6 cells/ml (approximately 100,000 of CD8^+/Vβ17^+ T cells) in fresh AIMV medium supplemented with 5% human AB, 20 IU/ml of IL-2, and 5 ng/ml of IL-15. 1F6 or control non-binding IgG (cIgG) ADCs were added to some cultures to a final concentration of 1 μg/ml. Total viable cell counts were conducted 24, 48, and 76 hours after ADC addition. Two-color flow cytometry was conducted to determine the percentages of CD8^+/Vβ17^+ cells among the viable cells. The absolute number of CD8^+/Vβ17^+ T cells in each culture was then calculated. […] The effects of 1F6 ADCs on the CD8^+/Vβ17^− cells were also evaluated.
The potency of three 1F6 ADCs was then compared. HLA-A0201 PBMCs were stimulated with the M1 peptide and re-seeded as described for FIG. 18 with the various ADCs at the indicated concentrations (FIG. 19). The percent of CD8^+/Vβ17^+ T cells after a 96-hour incubation was determined.

Caki-1 cells = assay: 3H-TdR proliferation assay, RCC lines; type: cell-based, human; details: Caki-1 cells
CD70^+ RCC lines [4] = assay: 3H-TdR proliferation assay, panel of RCC lines; type: cell-based, human
CD70^− Jurkat cells = assay: 3H-TdR proliferation assay, hematologic lines; type: cell-based, human; details: at concentrations as high as 2 μg/ml
Procedure: (§1) FIG. 5: Effects of anti-CD70 ADCs on the proliferation of transformed hematologic cell lines. A subset of the CD70^+ cell lines shown in FIG. 4 and the CD70^− Jurkat cell line were tested for their sensitivity toward 1F6 ADCs. Graded doses of the 1F6-vcMMAE, 1F6-vcAFP, or the corresponding non-binding control IgG (IgG) ADCs were added to cells at the initiation of culture. Cells were exposed to the ADCs continuously for a total of 96 hours. Proliferation was determined by pulsing with ^3H-TdR during the last 16 hours of incubation. The upper panels show the response of the WSU-NHL and Jurkat lines. The lower panel summaries the responses by the tested cell lines to 1F6-vcMMAE and 1F6-vcAFP in form of IC50s.
(§2) A subset of the CD70^+ hematologic lines listed in FIG. 4 was tested for sensitivity to the 1F6 ADCs. These lines were seeded at 5,000 cells per well in 96-well plates in quadruplicates in a total of 200 μl of culture medium containing graded doses of the ADCs as indicated in the FIG. 5 and the accompanying figure legend. Proliferation assays were carried out for 96 hours. Tritiated thymidine (^3H-TdR) incorporation during the last 16 hours of incubation was used to assess DNA synthesis. The responses of a CD70^+ B lymphoma cell line WSU-NHL and the CD70^− Jurkat cells are shown in the upper panels of FIG. 5. […] Proliferation inhibitory effects were apparent when the ADCs were used at concentrations higher than 0.005 μg/ml. […] On the other hand, proliferation of the CD70^− Jurkat acute T leukemia cell line was not affected by either 1F6-vcMMAE or 1F6-vcAFP at concentrations as high as 2 μg/ml. […] The responses of other CD70^+ cell lines tested are summarized in the lower panel of FIG. 5. […] Moreover, EBV-LCLs are phenotypically very similar to activated normal B cells.

WSU-NHL cells = assay: 3H-TdR proliferation assay, hematologic lines; type: cell-based, human; details: 96 hours, 3H-TdR last 16 hours
Procedure: as §1, §2

[5] = tested on: Hodgkin's disease cell lines; assay: Cytotoxic activity against Hodgkin's disease cell lines (panel); type: cell-based, human
Procedure: Cell surface CD70 expression was also evaluated in panels of Hodgkin's disease (Table 4) and glioblastoma cell lines (Table 5). The copy number of CD70 molecules expressed by each cell line was determined by quantitative flow cytometry using the QIFIKit® (Dako, Carpinteria, Calif.). The response of these cells to anti-CD70 ADC-mediated cytotoxicity was determined.

[6] = tested on: CD70-expressing multiple myeloma cells; assay: Cytotoxic activity against multiple myeloma cell lines (panel); type: cell-based, human
Procedure: Cell surface CD70 expression was evaluated in a panel of multiple myeloma cell lines (Table 3). Copy number of CD70 molecules expressed by each cell line was determined by quantitative flow cytometry using the QIFIKit® (Dako, Carpinteria, Calif.). Response of these cells to anti-CD70 ADC-mediated cytotoxicity was determined.

Vβ17^− T cells = assay: Anti-CD3 plus anti-CD28 re-stimulation assay of bystander T cells (3H-TdR); type: cell-based, human; details: Vβ17^− T cells from culture treated with 1 μg/ml, 96 hours, no exogenous IL-2
Source text: PBMCs from a normal HLA-A0201donor were stimulated with the M1 peptide for 5 days.

CD70^+ RCC lines [7] = details: in 5 of 7 CD70^+ RCC lines tested
Procedure: To examine the responses of CD70^+ RCC lines to 1F6 ADCs, cells were seeded between 1,000 to 3,000 cells per well in 100 μl of medium. An additional 100 μl of culture medium containing graded doses of ADCs were added to the wells after cells were allowed to attached overnight. In addition to DNA synthesis, cell viability, as a reflection of the cytotoxic activities of ADCs, was also assayed by the reduction of alamarBlue™ (Biosource International, Camarillo, Calif.). The alamarBlue™ dye was added at a one to four dilution during the last 4 to 24 hours of the incubation. Dye reduction was assessed by fluorescence spectrometry using the excitation and emission wavelengths of 535 nm and 590 nm, respectively. For analysis, the amount of ^3H-TdR incorporated or the extent of alamarBlue™ reduction by the treated cells was compared to that of the untreated control cells.

Caki-1 tumors = assay: Caki-1 subcutaneous xenograft model of RCC; type: in vivo, nude mice; details: Caki-1 xenograft, q4d×4
Source text: Tumors were initiated in nude mice by implanting tissue tumor blocks (30 mm^3 in size) containing Caki-1 cells. Treatment began when average tumor size within a treatment group was around 100 mm^3. In the upper panel, treatment for the IgG and 1F6 groups began 17 days post implantation (filled arrow), while treatment for the 1F6-vcAFP and IgG-vcAFP groups began 25 days post implantation (open arrow). Indicated doses of either unconjugated mAbs or their ADCs were given for one course on a q4d×4 schedule.
Using xenografts of the Caki-1 line in nude mice, the […] antitumor activity of 1F6-vcAFP was tested. To establish Caki-1 tumors, nude mice were injected subcutaneously with 5×10^6 Caki-1 cells in 0.2 ml PBS. […] Caki-1-containing tumors were excised from tumor bearing mice and tumor tissue blocks of approximately 30 mm^3 were prepared. Naive nude mice to be used for evaluating in vivo antitumor activity of anti-CD70 ADC were each implanted subcutaneously with one tumor block of 30 mm^3. […] Treatment was initiated when the average tumor size within a group was approximately 100 mm^3 (FIG. 12, arrows).

[8] = tested on: tetanus toxoid-specific T cells; type: cell-based, human

B1: 1F6-vcMMAE: anti-CD70 mAb 1F6 linked to monomethyl auristatin E by the valine-citrulline (vc) dipeptide linker (conjugate)
VH: QIQLVQSGPEVKKPGETVKISCKASGYTFTNYGMNWVKQAPGKGLKWMGWINTYTGEPTYADAFKGRFAFSLETSASTAYLQINNLKNEDTATYFCARDYGDYGMDYWGQGTSVTVSS
VL: DIVLTQSPASLAVSLGQRATISCRASKSVSTSGYSFMHWYQQKPGQPPKLLIYLASNLESGVPARFSGSGSGTDFTLNIHPVEEEDAATYYCQHSREVPWTFGGGTKLEIKR
modifications: non-natural residues
notes: anti-CD70 mAb 1F6 linked to monomethyl auristatin E by the valine-citrulline (vc) dipeptide linker
Caki-2 cells
  IC50, proliferation: lower than 20 ng/ml
[1]
  activity on proliferation: not active
[2]
  effect on T cell proliferation: substantially inhibited T cell proliferation
CD70^− Hs 835.T cells
  activity on proliferation: not active
[3]; 1 μg/ml, 76 hours after ADC addition
  number of CD8^+/Vβ17^+ T cells: approximately 400,000
[3]; 96-hour incubation
  inhibition of CD8^+/Vβ17^+ T cell expansion: dose-dependent inhibition
  relative inhibitory activity: weaker than both 1F6-vcAFP and 1F6-vcMMAF
Caki-1 cells
  IC50, proliferation: lower than 20 ng/ml
CD70^+ RCC lines [4]; other CD70^+ RCC lines (not Caki-1, Caki-2)
  activity on proliferation: not active
CD70^− Jurkat cells
  effect on proliferation of Jurkat cells: not affected
WSU-NHL cells
  effect on the proliferation of WSU-NHL cells: dose-dependent inhibitory effects

B2: c1F6-vcMMAF4: chimeric 1F6 (c1F6)-vcMMAF4 anti-CD70 ADC (conjugate)
VH: B1 VH
VL: B1 VL
modifications: non-natural residues
notes: chimeric 1F6 (c1F6)-vcMMAF4 anti-CD70 ADC
[5]
  IC50 values, range over the panel: 0.41 to 42 ng/mL
[6]
  IC50 values, range over the panel: 1.2 to 160 ng/mL

B3: 1F6-vcMMAF: anti-CD70 mAb 1F6 linked to monomethyl auristatin phenylalanine by the valine-citrulline (vc) dipeptide linker (conjugate)
VH: B1 VH
VL: B1 VL
modifications: non-natural residues
notes: anti-CD70 mAb 1F6 linked to monomethyl auristatin phenylalanine by the valine-citrulline (vc) dipeptide linker
Vβ17^− T cells
  response to anti-CD3 plus anti-CD28 re-stimulation: comparable to that of the untreated cells
[3]; 1 μg/ml added on day 5, 4 days, untreated 47%
  CD8^+/Vβ17^+ T cells in the culture: 14%
[3]; 96-hour incubation
  inhibition of CD8^+/Vβ17^+ T cell expansion: dose-dependent inhibition
CD70^+ RCC lines [7]
  IC50 values to induce cytotoxicity: lower than 30 ng/ml
CD70^+ RCC lines [4]; CD70^+ RCC lines tested
  IC50 values for proliferation inhibition: lower than 30 ng/ml

B4: 1F6: anti-human CD70 monoclonal antibody obtained from the Central Laboratory of the Netherlands Red Cross Blood Transfusion Service (antibody, V domains shown)
VH: B1 VH
VL: B1 VL
modifications: Mature 1F6 Heavy Chain Variable region from Figure 1; Mature 1F6 Light Chain Variable Region from Figure 1
notes: anti-human CD70 monoclonal antibody obtained from the Central Laboratory of the Netherlands Red Cross Blood Transfusion Service
Caki-1 tumors
  therapeutic activity / tumor growth: Very little therapeutic activity
[8]
  effect on tetanus toxoid-induced T cell proliferation: did not show a significant effect
